T1: TNFR1 (Homo sapiens, UniProt P19438)
T1 chain: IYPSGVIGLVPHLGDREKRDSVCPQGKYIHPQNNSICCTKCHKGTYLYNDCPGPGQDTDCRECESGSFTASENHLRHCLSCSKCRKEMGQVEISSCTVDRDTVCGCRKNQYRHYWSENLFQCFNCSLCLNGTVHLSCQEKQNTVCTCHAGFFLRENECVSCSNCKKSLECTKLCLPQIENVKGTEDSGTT


Target: T1, TNFR1
Experiment: yeast display SC50

apparent Kd (screen)	Binder
0.446 nM	K35C (designed binder) MTLQELLREEALRRAEAEAFRYALELLAEKFPEQCEYLLDLAEEIESQIRSLSGVDVEDVRKFLDKEWAWVKELLAEHPAELAEVEAARAARLAELRAEVEAKVAA
13.8 nM	L64A (designed binder) MTLQELLREEALRRAEAEAFRYALELLAEKFPEQKEYLLDLAEEIESQIRSLSGVDVEDVRKFADKEWAWVKELLAEHPAELAEVEAARAARLAELRAEVEAKVAA
0.653 nM	P79T (designed binder) MTLQELLREEALRRAEAEAFRYALELLAEKFPEQKEYLLDLAEEIESQIRSLSGVDVEDVRKFLDKEWAWVKELLAEHTAELAEVEAARAARLAELRAEVEAKVAA
2.48 nM	V71W (designed binder) MTLQELLREEALRRAEAEAFRYALELLAEKFPEQKEYLLDLAEEIESQIRSLSGVDVEDVRKFLDKEWAWWKELLAEHPAELAEVEAARAARLAELRAEVEAKVAA
0.49 nM	L82I (designed binder) MTLQELLREEALRRAEAEAFRYALELLAEKFPEQKEYLLDLAEEIESQIRSLSGVDVEDVRKFLDKEWAWVKELLAEHPAEIAEVEAARAARLAELRAEVEAKVAA
1.54 nM	E44R (designed binder) MTLQELLREEALRRAEAEAFRYALELLAEKFPEQKEYLLDLAERIESQIRSLSGVDVEDVRKFLDKEWAWVKELLAEHPAELAEVEAARAARLAELRAEVEAKVAA
0.446 nM	A83Q (designed binder) MTLQELLREEALRRAEAEAFRYALELLAEKFPEQKEYLLDLAEEIESQIRSLSGVDVEDVRKFLDKEWAWVKELLAEHPAELQEVEAARAARLAELRAEVEAKVAA
0.869 nM	L74Y (designed binder) MTLQELLREEALRRAEAEAFRYALELLAEKFPEQKEYLLDLAEEIESQIRSLSGVDVEDVRKFLDKEWAWVKEYLAEHPAELAEVEAARAARLAELRAEVEAKVAA
0.405 nM	L24N (designed binder) MTLQELLREEALRRAEAEAFRYANELLAEKFPEQKEYLLDLAEEIESQIRSLSGVDVEDVRKFLDKEWAWVKELLAEHPAELAEVEAARAARLAELRAEVEAKVAA
11.4 nM	L38S (designed binder) MTLQELLREEALRRAEAEAFRYALELLAEKFPEQKEYSLDLAEEIESQIRSLSGVDVEDVRKFLDKEWAWVKELLAEHPAELAEVEAARAARLAELRAEVEAKVAA
2.48 nM	S53G (designed binder) MTLQELLREEALRRAEAEAFRYALELLAEKFPEQKEYLLDLAEEIESQIRSLGGVDVEDVRKFLDKEWAWVKELLAEHPAELAEVEAARAARLAELRAEVEAKVAA
2.05 nM	E10W (designed binder) MTLQELLREWALRRAEAEAFRYALELLAEKFPEQKEYLLDLAEEIESQIRSLSGVDVEDVRKFLDKEWAWVKELLAEHPAELAEVEAARAARLAELRAEVEAKVAA
1.27 nM	D56S (designed binder) MTLQELLREEALRRAEAEAFRYALELLAEKFPEQKEYLLDLAEEIESQIRSLSGVSVEDVRKFLDKEWAWVKELLAEHPAELAEVEAARAARLAELRAEVEAKVAA
0.539 nM	E43W (designed binder) MTLQELLREEALRRAEAEAFRYALELLAEKFPEQKEYLLDLAWEIESQIRSLSGVDVEDVRKFLDKEWAWVKELLAEHPAELAEVEAARAARLAELRAEVEAKVAA

From publication PMC12416549 (2024)
